According to patent publication US20250361274A1, “PEPTIDE AND PEPTIDE-CONTAINING AGENT” (PEPTIDREAM INC., priority 2022, published 2025):
Numbered stars: 1 amine (or outer) side, 2 acyl side, 3 side chain; on linkers, the order of the positions; unused ones are H or OH. Bridge positions count the residues as written; N and C are the ends. Square brackets hold non-standard residues; d marks the D form. Ends that are not written are not given here. * marks the point of attachment. KCOpipzaa = N6-(4-(carboxymethyl)piperazine-1-carbonyl)-L-lysine, O=C(NCCCC[C@H](N[*:1])C(=O)[*:2])N1CCN(CC(=O)[*:3])CC1; X8 = 4‑(carboxymethyl)piperazine‑1‑carbonyl, O=C(O)CN1CCN(C(=O)*)CC1; 3Pal(6-Ph) = N[C@@H](Cc1ccc(-c2ccccc2)nc1)C(=O)O; Phe(4-COOH) = N[C@@H](Cc1ccc(C(=O)O)cc1)C(=O)O; NMePhe(3-Cl) = CN[C@@H](Cc1cccc(Cl)c1)C(=O)O; NMePhe(4-Cl) = CN[C@@H](Cc1ccc(Cl)cc1)C(=O)O; Bip = N[C@@H](Cc1ccc(-c2ccccc2)cc1)C(=O)O; Phe(4-Cl) = N[C@@H](Cc1ccc(Cl)cc1)C(=O)O; Hyp = O=C(O)[C@@H]1C[C@@H](O)CN1; NMeF = CN[C@@H](Cc1ccccc1)C(=O)O; 3Pal = N[C@@H](Cc1cccnc1)C(=O)O; 4Pal = N[C@@H](Cc1ccncc1)C(=O)O; Aad = N[C@@H](CCCC(=O)O)C(=O)O; Cha = N[C@@H](CC1CCCCC1)C(=O)O; Chg = N[C@H](C(=O)O)C1CCCCC1; Abu = CC[C@H](N)C(=O)O; βAla = NCCC(=O)O

Tests used:
BMP4 = molecular target: T1, BMP4 (Homo sapiens, UniProt P12644); test: BMP4 signal transduction inhibitory activity: SMAD1 phosphorylation by BMP4 stimulus, AlphaLISA SureFire, A549 cells; assay type: cell-based; details: for aLISA BMP4: A549 cells
T1 sequence (P12644 293-408): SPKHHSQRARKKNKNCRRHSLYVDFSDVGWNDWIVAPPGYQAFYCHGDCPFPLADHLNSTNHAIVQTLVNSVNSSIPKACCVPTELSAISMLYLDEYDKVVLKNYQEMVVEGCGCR

BMP7 = molecular target: T2, BMP7 (Homo sapiens, UniProt P18075); test: BMP7 signal transduction inhibitory activity: SMAD1 phosphorylation by BMP7 stimulus, A549 cells; assay type: cell-based; details: for aLISA BMP7: A549 cells
T2 sequence (P18075 293-431): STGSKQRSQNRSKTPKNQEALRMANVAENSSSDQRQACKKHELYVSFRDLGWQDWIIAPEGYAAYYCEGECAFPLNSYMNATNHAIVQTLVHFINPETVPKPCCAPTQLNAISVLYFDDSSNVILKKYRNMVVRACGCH
Procedure, shortened: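 Cell line A549; stimulus BMP7 10 nM; endpoint pSMAD1. Peptide doses: three concentrations (1–1,000 nM range) or 8 × 1/3 dilutions from 100/1,000 nM.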

[1] = BMP4 0.2 nM stimulus, peptide conc. in assay 0.2, 2, 20 nM
[2] = BMP7 10 nM stimulus, peptide conc. in assay 1, 10, 100 nM
[3] = BMP4 0.2 nM stimulus, peptide conc. in assay 2, 20, 200 nM
[4] = BMP7 10 nM stimulus, peptide conc. in assay 10, 30, 90 nM
[5] = SMAD1 phosphorylation, BMP4 0.2 nM, peptide conc. in assay 0.2, 2, 20 nM
[6] = SMAD1 phosphorylation, BMP7 10 nM, peptide conc. in assay 1, 10, 100 nM
[7] = inhibition of SMAD1 phosphorylation by BMP4 stimulus, peptides of Synthesis 2, classes A-C, ND
[8] = inhibition of SMAD1 phosphorylation by BMP7 stimulus, peptides of Synthesis 2, classes A-D, ND
[9] = inhibition of SMAD1 phosphorylation by BMP4 stimulus, AlphaLISA, class by peptide concentration zone
[10] = inhibition of SMAD1 phosphorylation by BMP7 stimulus, AlphaLISA, class by peptide concentration zone

## 307 (ERV[Phe(4-COOH)][Chg][KCOpipzaa]R[3Pal(6-Ph)][KCOpipzaa]Y[Hyp][Bip]Y[Phe(4-COOH)][Phe(4-COOH)]SCG-NH2; not fully specified) [compound 307]
BMP4; BMP4 0.2 nM, peptide 0.02, 0.2, 2 nM, Table 6
  aLIZA BMP4 (0.2 nM) % inh: C (showed less than 30% of inhibitory activity in 0.2 nM-addition zone and showed 30% or more of inhibitory activity in 2 nM-addition zone)
BMP7; BMP7 10 nM, peptide 10, 100, 1000 nM, Table 6
  aLIZA BMP7 (10 nM) % inh: E (showed less than 30% of inhibitory activity in 100 nM-addition zone and showed 30% or more of inhibitory activity in 1,000 nM-addition zone)

## 419 (FG[NMeF]G[3Pal(6-Ph)]GDE[Cha][Aad][NMeF]L[Abu]C[βAla][dE]) [compound 419]
BMP4; [1]
  aLISA BMP4 (0.2 nM) % inh: ND (the inhibitory activity was less than 30% at the maximum concentration evaluated)
BMP7; [2]
  aLISA BMP7 (10 nM) % inh: D (showed less than 30% of inhibitory activity in 10 nM-addition zone and showed 30% or more of inhibitory activity in 100 nM-addition zone)

## 388 (FG[NMeF]G[Bip]GDD[Cha]A[NMePhe(3-Cl)]LHCG-NH2; not fully specified) [compound 388]
BMP4; [3]
  aLISA BMP4 (0.2 nM) % inh: B (showed less than 30% of inhibitory activity in 20 nM-addition zone and showed 30% or more of inhibitory activity in 200 nM-addition zone)
BMP7; [4]
  aLISA BMP7 (10 nM) % inh: E (showed 30% or more of inhibitory activity in 10 nM-addition zone)

## 17 ({CH2CO}-ARVYVDR[Bip]GYP[Bip]Y[Phe(4-COOH)][Phe(4-COOH)]SCG-NH2; thioether N-17; not fully specified) [compound 17]
BMP4; SMAD1 phosphorylation, peptides of Synthesis 2, peptide 0.02, 0.2, 2 nM
  aLISA BMP4: A (showed an inhibitory activity of 50% or more in a zone to which the peptide was added to in an amount of 0.2 nM)
BMP7; 10 nM BMP7, peptides of Synthesis 2, peptide 1, 10, 100 nM
  aLISA BMP7: C (showed less than 50% of inhibitory activity in 10 nM-addition zone and showed 50% or more of inhibitory activity in 100 nM-addition zone)

## 248 (E[KCOpipzaa]VYVDR[3Pal(6-Ph)]SYV[Bip]Y[Phe(4-COOH)][Phe(4-COOH)]SCG-NH2) [compound 248]
BMP4; SMAD1 phosphorylation by BMP4 stimulus, peptide conc. in assay 0.02, 0.2, 2 nM, class symbols
  aLIZA BMP4 (0.2 nM) % Inh: C (showed less than 30% of inhibitory activity in 0.2 nM-addition zone and showed 30% or more of inhibitory activity in 2 nM-addition zone)
BMP7; SMAD1 phosphorylation by BMP7 stimulus, peptide conc. in assay 10, 100, 1000 nM, class symbols
  aLIZA BMP7 (10 nM) % Inh: ND (the inhibitory activity was less than 30% at the maximum concentration evaluated)

## 323 ([3Pal]G[NMeF]G[Bip]GDD[Cha]A[NMeF]LHCG-NH2; not fully specified) [compound 323]
BMP4; [5]
  aLISA BMP4 (0.2 nM) % inh: ND (the inhibitory activity was less than 30% at the maximum concentration evaluated)
BMP7; [6]
  aLISA BMP7 (10 nM) % inh: D (showed less than 30% of inhibitory activity in 10 nM-addition zone and showed 30% or more of inhibitory activity in 100 nM-addition zone)

## 385 (FG[NMePhe(4-Cl)]G[Bip]GDD[Cha]A[NMeF]LHCG-NH2; not fully specified) [compound 385]
BMP4; [3]
  aLISA BMP4 (0.2 nM) % inh: B (showed less than 30% of inhibitory activity in 20 nM-addition zone and showed 30% or more of inhibitory activity in 200 nM-addition zone)
BMP7; [4]
  aLISA BMP7 (10 nM) % inh: F (showed less than 30% of inhibitory activity in 10 nM-addition zone and showed 30% or more of inhibitory activity in 30 nM-addition zone)

## 348 (FG[NMeF]G[Bip]GDD[Cha]A[NMeF]LACG-NH2; not fully specified (N-terminus, bridges)) [compound 348]
BMP4; [5]
  aLISA BMP4 (0.2 nM) % inh: A (showed less than 30% of inhibitory activity in 2 nM-peptide-addition zone and showed 30% or more of inhibitory activity in 20 nM-addition zone)
BMP7; [6]
  aLISA BMP7 (10 nM) % inh: D (showed less than 30% of inhibitory activity in 10 nM-addition zone and showed 30% or more of inhibitory activity in 100 nM-addition zone)

## 98 ({CH2CO}-ERVYV[KCOpipzaa]R[3Pal(6-Ph)]SYP[Bip]Y[Phe(4-COOH)][Phe(4-COOH)]SC[βAla][dE]-OH; thioether N-17; not fully specified) [compound 98]
BMP4; [7]
  aLISA BMP4: A (showed an inhibitory activity of 50% or more in a zone to which the peptide was added to in an amount of 0.2 nM)
BMP7; [8]
  aLISA BMP7: C (showed less than 50% of inhibitory activity in 10 nM-addition zone and showed 50% or more of inhibitory activity in 100 nM-addition zone)

## 380 (FG[NMeF]G[Phe(4-Cl)]GDD[Cha]A[NMeF]LHCG-NH2; not fully specified) [compound 380]
BMP4; [3]
  aLISA BMP4 (0.2 nM) % inh: B (showed less than 30% of inhibitory activity in 20 nM-addition zone and showed 30% or more of inhibitory activity in 200 nM-addition zone)
BMP7; [4]
  aLISA BMP7 (10 nM) % inh: F (showed less than 30% of inhibitory activity in 10 nM-addition zone and showed 30% or more of inhibitory activity in 30 nM-addition zone)

## 407 (FG[NMeF]G[Bip]GDE[Cha]Q[NMeF]L[Phe(4-COOH)]C[βAla][dE]) [compound 407]
BMP4; [1]
  aLISA BMP4 (0.2 nM) % inh: ND (the inhibitory activity was less than 30% at the maximum concentration evaluated)
BMP7; [2]
  aLISA BMP7 (10 nM) % inh: C (showed less than 30% of inhibitory activity in a zone to which the peptide was added in an amount of 1 nM and showed 30% or more of inhibitory activity in 10 nM-addition zone)

## 57 (Ac-ARVYVDK(X8)[Bip]PYP[Bip]Y[Phe(4-COOH)][Phe(4-COOH)]SCG-NH2; thioether (positions not given here); not fully specified (bridges)) [compound 57]
BMP4; [9]
  aLISA BMP4: C (showed an inhibitory activity of less than 50% in 0.2 nM-addition zone and showed an inhibitory activity of 50% or more in 2 nM-addition zone were defined as B or C)
BMP7; [10]
  aLISA BMP7: C (showed less than 50% of inhibitory activity in 10 nM-addition zone and showed 50% or more of inhibitory activity in 100 nM-addition zone)

## 43 (Ac-AKVYVD[4Pal][Bip]PYP[Bip]Y[Phe(4-COOH)][Phe(4-COOH)]SCG-NH2; thioether (positions not given here); not fully specified (bridges)) [compound 43]
BMP4; [9]
  aLISA BMP4: C (showed an inhibitory activity of less than 50% in 0.2 nM-addition zone and showed an inhibitory activity of 50% or more in 2 nM-addition zone were defined as B or C)
BMP7; [10]
  aLISA BMP7: ND (the inhibitory activity was less than 30% at the maximum concentration evaluated)

## 103 ({CH2CO}-ERV[Phe(4-COOH)]V[KCOpipzaa]R[Bip]SYP[Bip]Y[Phe(4-COOH)][Phe(4-COOH)]SC[βAla][dE]-OH; thioether N-17; not fully specified) [compound 103]
BMP4; [7]
  aLISA BMP4: A (showed an inhibitory activity of 50% or more in a zone to which the peptide was added to in an amount of 0.2 nM)
BMP7; [8]
  aLISA BMP7: A (showed 50% or more of inhibitory activity in a zone to which the peptide was added in an amount of 1 nM)
